Key:
[1] = molecular target: ectodomain of human syndecan-4 (natural isoform 2 of SDC-4) (human); experiment: SEC-MALS
[2] = molecular target: ectodomain of human syndecan-4 (natural isoform 2 of SDC-4) (human); experiment: ion mobility mass spectrometry

stoichiometry N [1]: 2
stoichiometry N [2]: 2
Substance: ectodomain of human syndecan-4 (natural isoform 2 of SDC-4) (domain or fragment)
